# Laboratory results taken from patent US20160311886A1, “Constructs Binding to Phosphatidylserine and Their Use in Disease Treatment and Imaging” (Board of Regents, The University of Texas System, priority 2005, published 2016).
# Assays:
# [1] = Competition of 9D2 and annexin V for binding to immobilized PS; conditions: competitor in 10-fold molar excess
# Method: Biotinylated 9D2 antibody and annexin V were prepared by incubating purified proteins with a 10-fold molar excess of N-hydroxysuccinimide biotin (Sigma, MO) for 1 h at room temperature. Free biotin was removed by dialysis against PBS. […] For competition studies, […] biotinylated proteins were premixed with a 10-fold molar excess of unmodified proteins. The mixtures were then added to PS-coated plates. Bound reagents were detected by streptavidin-HRP conjugate diluted 1:1000. The binding to PS of each reagent in the absence of a competitor was taken as the 100% value.
# bEnd.3 and ABAE cells = assay: Binding to cultured endothelial cells and inhibition by liposomes; type: cell-based, mouse, bovine; conditions: quiescent conditions
# Method: Endothelial cells were grown until they reached approximately 70% confluence. To induce PS exposure, cells were treated with H2O2 (200 μM) for 1 h at 37° C. Control and treated slides were washed with DPBS containing Ca^2+ and Mg^2+ and fixed with 0.25% of glutaraldehyde diluted in the same buffer. Excess aldehyde groups were quenched by incubation with 50 mM of NH4Cl for 5 min. To examine the effect of detergents and organic solvents on detection of phospholipids, some slides were pre-incubated with acetone (5 min) or with PBS containing 1% (v/v) Triton™ X-100.
# Cells were washed with DPBS (containing Ca^2+, Mg^2+ and 0.2% (w/v) gelatin) and incubated with 1 μg/ml of biotinylated annexin V (Pharmingen, San Diego, Calif.) or with 1 μg/ml of 9D2 antibody. After 2 h of incubation, cells were washed with 0.2% gelatin buffer and were incubated with streptavidin-HRP (1:500 dilution). […] HRP activity was measured by adding O-phenylenediamine (0.5 mg/ml) and hydrogen peroxide (0.03% w/v) in citrate-phosphate buffer, pH 5.5. After 15 min, 100 μl of supernatant were transferred to 96 well plates, 100 μl of 0.18 M H2SO4 were added and the absorbance was measured at 490 nm. Alternatively, PS-positive cells were detected by addition of carbazole substrate, resulting in insoluble red-brownish precipitate. […]
# tumor cells = assay: Direct inhibitory effects of 3G4 on tumor cells in vitro; type: cell-based
# [2] = system: Pan02 mouse pancreatic adenocarcinoma; assay: 3G4 and gemcitabine, pancreatic cancer; type: in vivo; conditions: 3G4 100 μg, gemcitabine 3.5 mg; day 22
# Method: Pan02 mouse pancreatic adenocarcinoma cells were injected into the pancreas of immunocompetent C57BL/6 mice. Treatment was started on day 5 after tumor cell injection. […] Gemcitabine is a pyrimidine anti-metabolite. The animals were sacrificed at day 22 after tumor cell injection, and the tumor weight determined.
# dendritic cells = assay: DC uptake of apoptotic tumor cells; type: cell-based; conditions: Fc(γ)R mediated internalization
# From the text: The inventors therefore envision using the anti-PS antibodies of the present invention to enhance both […] and cellular anti-tumor immunity, and boost the efficacy of ATC based DC tumor vaccines.
# mCMV RVG102 = assay: Survival of mCMV-infected mice; type: in vivo, mouse; conditions: past 90 days post infection; untreated 25%
# [3] = Anti-PS ELISA in OVA or sera of different species; type: binding
# Method: The assay was performed as follows (see also, Ran et al., 2005, specifically incorporated herein by reference). PS-coated Immunlon 1B microtiter plates were blocked overnight in 1% OVA (w/v). […] Dilutions were performed in 1% OVA or 10% non-heat inactivated sera from cow, human, rat or mouse. […] All ELISA studies were performed at least three times.
# [4] = system: Tissue Factor (TF)-induced coagulation
Molecule,Binding (% Control) of Biotinylated 9D2 to PS [1],Binding (% Control) of Biotinylated annexin V to PS [1],binding to non-permeabilized monolayers (bEnd.3 and ABAE cells),direct inhibitory effect on tumor cells (tumor cells),anti-tumor effect (tumor weight) [2],enhancement of DC uptake of apoptotic tumor cells (dendritic cells),survival (mCMV RVG102),binding to PS ([3]; 10% mouse serum),binding to PS ([3]; 10% rat and human serum),"binding to PS-coated microtiter plates ([3]; dilutions in 1% OVA, listed as 3G4 purified from SCM)","binding to PS-coated microtiter plates ([3]; dilutions in 1% OVA, listed as 3G4 purified from SFM)",binding to PS-coated microtiter plates ([3]; dilutions in 10% FBS),"binding to PS ([3]; hamster, ferret, guinea pig, rabbit and monkey serum)",inhibition of TF-induced coagulation [4],activation of endothelial cells (HUVECs)
Annexin V: High affinity PS binding ligand; natural ligand binding anionic phospholipids and PE,93%,8%,Neither 9D2 nor annexin V bound,–,–,–,–,–,–,–,–,–,–,–,–
"3G4: Mouse IgG3 kappa monoclonal antibody to PS and anionic phospholipids; binding mediated by β2-glycoprotein I (antibody, listed as Mus musculus) VH: MGWTWIFILILSVTTGVHSEVQLQQSGPELEKPGASVKLSCKASGYSFTGYNMNWVKQSHGKSLEWIGHIDPYYGDTSYNQKFRGKATLTVDKSSSTAYMQLKSLTSEDSAVYYCVKGGYYGHWYFDVWGAGTTVTVSSATTTAPSVYPLVP VL: MDMRAPAQILGFLLLLFPGTRCDIQMTQSPSSLSASLGERVSLTCRASQDIGSSLNWLQQGPDGTIKRLIYATSSLDSGVPKRFSGSRSGSDYSLTISSLESEDFVDYYCLQYVSSPPTFGAGTKLELKRADAAPTVFIFGRIP",–,–,–,No direct inhibitory effect on tumor cells was observed,significant anti-tumor effect,300%,100%,did not bind PS,bound PS,binds PS weakly,no longer binds PS,binds to PS-coated microtiter plates,bound PS,weak inhibition,does not activate resting HUVECs or HUVECs pre-activated with low concentrations of LPS
